This assay concerns the target MOB1B 2-216 (UniProt Q7L9L4). Briefly: SPOT peptide array overlaid with GST-MOB1B.

This is an account of results in paper PMC5461540, “MOB1 Mediated Phospho-recognition in the Core Mammalian Hippo Pathway” (Molecular & Cellular Proteomics : MCP, 2017).

For the substance MST1 (from UniProt Q13043) pT367 15-mer, the “binding against the reference” value (reference: nonphosphorylated T367 15-mer, sites T367) is “stronger”.

For MST1 (from UniProt Q13043) pT353 15-mer, the “binding against the reference” value (reference: nonphosphorylated T353 15-mer, sites T353) was “stronger”.
